Test system: N[C@@H](CCOP(=O)(O)O)C(=O)O
Assay: coupled MESG/PNP phosphate release, A360
Format: biochemical, Bacillus spizizenii
Conditions: 50 mM HEPES-NaOH pH 7.5, 100 μM PLP

BsThrC (Bacillus spizizenii) showed a Km (0.1 μM enzyme) of 329 µM and a kcat (0.1 μM enzyme) of 1.74 s⁻¹.

“RhiB (Bacillus spizizenii ATCC 6633 = JCM 2499)” showed a Km (0.25 μM enzyme) of 824 µM and a kcat (0.25 μM enzyme) of 0.60 s⁻¹.

Source: paper PMC7050208
